Test results taken from patent US20200157212A1 (Pfizer, published 2020).
Numbering of substitutions follows the chain as printed.

T1: Cynomolgus monkey ROBO2 overexpressed on HEK293 cells (cynomolgus monkey, UniProt Q9HCK4 22-1378 (human entry))
T1 chain: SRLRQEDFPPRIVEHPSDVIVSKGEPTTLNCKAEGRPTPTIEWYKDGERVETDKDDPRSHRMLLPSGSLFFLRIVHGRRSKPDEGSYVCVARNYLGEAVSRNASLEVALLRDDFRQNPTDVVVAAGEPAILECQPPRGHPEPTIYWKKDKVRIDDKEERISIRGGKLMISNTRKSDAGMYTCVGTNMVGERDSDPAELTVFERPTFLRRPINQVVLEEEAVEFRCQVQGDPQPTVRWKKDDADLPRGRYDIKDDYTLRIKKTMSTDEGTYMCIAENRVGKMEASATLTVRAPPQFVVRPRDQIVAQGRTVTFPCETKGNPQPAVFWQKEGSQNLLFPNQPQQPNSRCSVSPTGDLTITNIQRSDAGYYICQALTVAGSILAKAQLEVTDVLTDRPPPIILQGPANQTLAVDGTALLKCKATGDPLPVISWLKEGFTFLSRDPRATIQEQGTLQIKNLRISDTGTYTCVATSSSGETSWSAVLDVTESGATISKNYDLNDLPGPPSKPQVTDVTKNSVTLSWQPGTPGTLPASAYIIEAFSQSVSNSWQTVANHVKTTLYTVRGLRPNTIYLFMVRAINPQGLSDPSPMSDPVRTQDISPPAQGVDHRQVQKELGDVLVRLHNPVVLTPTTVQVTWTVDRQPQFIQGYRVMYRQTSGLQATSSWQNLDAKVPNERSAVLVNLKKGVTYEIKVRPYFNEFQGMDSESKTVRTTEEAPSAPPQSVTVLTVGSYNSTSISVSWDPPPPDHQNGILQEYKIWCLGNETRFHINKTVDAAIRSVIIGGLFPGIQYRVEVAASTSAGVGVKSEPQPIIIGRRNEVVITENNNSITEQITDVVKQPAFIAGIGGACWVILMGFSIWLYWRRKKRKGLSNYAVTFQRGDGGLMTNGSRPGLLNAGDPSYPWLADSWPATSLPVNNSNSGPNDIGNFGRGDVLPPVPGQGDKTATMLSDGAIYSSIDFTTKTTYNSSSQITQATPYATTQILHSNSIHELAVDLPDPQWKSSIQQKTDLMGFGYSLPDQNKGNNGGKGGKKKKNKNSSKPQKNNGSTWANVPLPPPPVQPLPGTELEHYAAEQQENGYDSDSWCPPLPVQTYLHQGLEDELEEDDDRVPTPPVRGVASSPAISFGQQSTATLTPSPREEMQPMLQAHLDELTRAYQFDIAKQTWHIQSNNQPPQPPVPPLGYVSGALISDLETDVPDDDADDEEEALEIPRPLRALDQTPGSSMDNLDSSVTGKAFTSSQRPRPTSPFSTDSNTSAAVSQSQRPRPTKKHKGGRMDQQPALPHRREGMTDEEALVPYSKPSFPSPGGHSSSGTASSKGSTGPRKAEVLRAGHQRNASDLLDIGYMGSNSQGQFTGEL

B1: 93H2 (antibody, human IgG1, kappa, V domains shown)
VH: EVQLVQSGAEVKKPGASVKVSCKASGYTFTGYYMHWVRQAPGQGLEWMGWINPNSGATNFPQKFQGRVTMTRDTSITTAYMDLSRLRSDDTAVYYCARESGDDAFDIWGQGTMVTVSS
VL: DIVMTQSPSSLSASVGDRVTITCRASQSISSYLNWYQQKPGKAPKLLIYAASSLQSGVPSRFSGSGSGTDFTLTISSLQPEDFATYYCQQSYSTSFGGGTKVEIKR
notes: also called parental 93H2; 93H2 mAb
B2: Abcs35 (antibody, human IgG1, kappa)
heavy: EVQLVQSGAEVKKPGASVKVSCKASGYTFTGYYMHWVRQAPGQGLEWMGWINPKNGDTEFPQKFQGRVTMTRDTSITTAYMDLSRLRSDDTAVYYCARESGDDAFDIWGQGTMVTVSSASTKGPSVFPLAPSSKSTSGGTAALGCLVKDYFPEPVTVSWNSGALTSGVHTFPAVLQSSGLYSLSSVVTVPSSSLGTQTYICNVNHKPSNTKVDKKVEPKSCDKTHTCPPCPAPEAAGAPSVFLFPPKPKDTLMISRTPEVTCVVVDVSHEDPEVKFNWYVDGVEVHNAKTKPREEQYNSTYRVVSVLTVLHQDWLNGKEYKCKVSNKALPAPIEKTISKAKGQPREPQVYTLPPSREEMTKNQVSLTCLVKGFYPSDIAVEWESNGQPENNYKTTPPVLDSDGSFFLYSKLTVDKSRWQQGNVFSCSVMHEALHNHYTQKSLSLSPGK
light: DIVMTQSPSSLSASVGDRVTITCRASQSISSYLNWYQQKPGKAPKLLIYAASSLQSGVPSRFSGSGSGTDFTLTISSLQPEDFATYYCQQSVGLFFGGGTKVEIKRTVAAPSVFIFPPSDEQLKSGTASVVCLLNNFYPREAKVQWKVDNALQSGNSQESVTEQDSKDSTYSLSSTLTLSKADYEKHKVYACEVTHQGLSSPVTKSFNRGEC
notes: fully human IgG1; VH of Ab96 with VL of Ab123
B3: Abcs25 (antibody, human IgG1, kappa, V domains shown)
VH: B1 VH with N54K, S55D, A57D, N59E
VL: DIVMTQSPSSLSASVGDRVTITCRASQSISSYLNWYQQKPGKAPKLLIYAASSLQSGVPSRFSGSGSGTDFTLTISSLQPEDFATYYCQQSVGLSFGGGTKVEIKR
notes: chain-shuffled IgG

Target: T1, Cynomolgus monkey ROBO2 overexpressed …
Assay: flow cytometry, HEK293 cells, average of n = 3
Method: Binding of the antibodies was detected using a secondary fluorochrome conjugated anti-human IgG F(ab′)₂ antibody and samples were analyzed on a Fortessa cytometer (BD Biosciences). The fold ROBO2 selectivity was calculated as the geometric mean fluorescence intensity (Geo MFI) with ROBO2 cells/Geo MFI with ROBO1 cells. A fold change higher than 3 was considered to be ROBO2 specific (Table 2, Fold Selectivity). Some affinity matured clones had increased ROBO1 reactivity, for example Abcs 55, CTI-R2-10 and CTIR2-13.
Based upon several criteria, Abcs25 and Abcs35 were selected for further characterization. Using flow cytometry, improvement in the binding EC₅₀ to human ROBO2 relative to the parental 93H2 was evaluated. Starting at 6.7 nM, 11-point, 3-fold dilution series were made for each antibody and used to stain HEK293 overexpressing human ROBO2 as described above for the ROBO2 fold selectivity (Example 2). […] In addition to measuring improved binding to human ROBO2, it was important to ensure that high affinity binding to both cynomolgus monkey ROBO2 and rat ROBO2 was maintained. Using HEK293 cells overexpressing either cynomolgus monkey ROBO2 or rat ROBO2, the relative dose-dependent binding of 93H2, Abcs25 and Abcs35 was evaluated as described above. High affinity binding to both cynomolgus monkey and rat ROBO2 was maintained in Abcs25 and Abcs35 (Table 4). […] Briefly, Abcs35 was immobilized to 300 resonance units (RU) on a CM5 chip. Association of ROBO2 Ig1-Ig2-His (ROBO2) was measured over 5 minutes and dissociation was followed for a period of 10 minutes.

Row | EC50 | Binder
1 | 0.316 nM | B1
2 | 0.128 nM | B3

Row | Binder | EC50
3 | B2 | 0.145 nM
